Assay [1] deals with J77.50.3 cells. Put plainly: IL-2 induction in J77.50.3 lines expressing ICAM-R variants. The conditions noted are these: for IL-2 Induction (Fold Stimulation): repeated experiments, Vector 0.52; for fold increase of IL-2 released (ICR-1.1 plus OKT3 divided by OKT3 alone): vector control 0.7 fold. The class given is cell-based, human. As for the experimental part: This dose of antibody alone provides minimal signalling for IL-2 release. The OKT3 treatment was removed and replaced with buffer alone or anti-ICAM-R (ICR-1.1) (10 ug/ml in PBS-D) and incubated at 37° C. for at least 2 hours. Monoclonal antibody coating was done in replicates of two or more wells and pooled to provide sufficient quantities of conditioned media for ELISA and/or bioassay. Two hundred fifty thousand Jurkat cells or transfectants thereof, were placed into antibody coated wells or buffer coated negative control wells in 0.1 ml of RPMI complete medium. Following incubation of about 16-24 hrs at 37° C. in a humidified atmosphere containing 5% CO2, the medium was transferred to a fresh 96 well round bottom plate, spun to pellet cells carried over and transferred to a fresh plate. Samples were frozen and stored at −70° C. IL-2 ELISAs were performed using commercially available kits (Biosource Intl. Co., Carmarille, Calif.) by making serial dilutions of the samples.
Experiments were performed using two independently isolated cell lines for each plasmid construct or the vector alone. Stable lines expressing similar levels of ICAM-R variants, as determined by indirect flow cytometry, were chosen for functional studies. Cells were costimulated with plate immobilized monoclonal antibodies ICR-1.1 and OKT3, and IL-2 release from the lines was quantitated by ELISA as previously described in Example 25C. Results were expressed as fold increase of IL-2 released from cells plated onto co-immobilized ICR-1.1 (10 μg/ml) plus OKt3 (1 μg/ml) divided by release from OKT3 ([…]) alone. The full length ICAM-R protein (haFL) gave 3.1 fold induction. The deletions gave the following fold inductions: haCTΔ505 induction was 1.5 fold, haCTΔ493 induction was 1.3 fold, haCTΔ484 was 0.8 fold. Vector control induction was 0.7 fold. […] In addition, removal of the residues 505-518 leads to the most significant reduction in co-stimulatory responsiveness. This implies that residues 505-518 play a relatively larger role in the response as compared to residues 484-505.

The test system of assay [2] is J77.50.3 cell lines. Put plainly: Cell spreading on ICR-1.1 coated plastic. The format is cell-based, human. The conditions noted are these: 20 minutes at 37° C. As for the experimental part:
To ascertain additional functional consequences of ICAM-R carboxyl terminal deletions, the Jurkat cell lines expressing the. ICAM-R variants described above were tested for the ability to adhere and spread on antibody coated plastic or to undergo antibody-mediated aggregation. Bacterial petri plates were coated with 50 μl drops of ICR-1.1 or w6/32 (10 μg/ml) (anti-MHC class I isotype matched control monoclonal antibody) in PBS for 120 minutes at 37° C. The plastic was rinsed twice prior to spotting 50 μl drops of J77.50.3 cell lines. Duplicate cell lines expressing these proteins at equivalent levels were tested. After 20 minutes at 37° C. the plate was flooded with 2% glutaraldehyde in PBS and incubated for 30 minutes to fix adherent cells. Fixed cells were rinsed twice with PBS and scored visually for the ability to flatten and spread. […] Weyrich et al., J. Clin. Invest., 95: 2297-2303 (1995) recently described the effect of a ICR-1.1 coated plastic surface on normal monocytes from peripheral blood. After two hours, these cells flattened down and spread with a similar overall morphology to that seen with the haFL expressing J77.50.3 cell line.

In assay [3] the test system is J77.50.3 cell lines. The assay can be described thus: ICR-1.1 induced aggregation of J77.50.3 lines. The following applies: for ICR-1.1 induced aggregation: ICR-1.1 10 μg/ml, 1 and 24 hours; for Percent Aggregation: repeated experiments, Vector 17. The class given is cell-based, human. As for the experimental part:
One of these monoclonal antibodies (ICR-1.1) was used to induce aggregation of the J77.50.3 cell lines expressing either full length ICAM-R (haFL) or carboxy terminal variants of ICAM-R. ICR-1.1 was added to 200,000 cells at 10 μg/ml in 96 well plates and incubated 37° C. At 1 and 24 hours after incubation the wells were visually screened for aggregates.

Assay [4] addresses T1, baculovirus-produced soluble human ICAM-R (Homo sapiens, UniProt P32942).
T1 sequence (P32942 30-485 limits assumed): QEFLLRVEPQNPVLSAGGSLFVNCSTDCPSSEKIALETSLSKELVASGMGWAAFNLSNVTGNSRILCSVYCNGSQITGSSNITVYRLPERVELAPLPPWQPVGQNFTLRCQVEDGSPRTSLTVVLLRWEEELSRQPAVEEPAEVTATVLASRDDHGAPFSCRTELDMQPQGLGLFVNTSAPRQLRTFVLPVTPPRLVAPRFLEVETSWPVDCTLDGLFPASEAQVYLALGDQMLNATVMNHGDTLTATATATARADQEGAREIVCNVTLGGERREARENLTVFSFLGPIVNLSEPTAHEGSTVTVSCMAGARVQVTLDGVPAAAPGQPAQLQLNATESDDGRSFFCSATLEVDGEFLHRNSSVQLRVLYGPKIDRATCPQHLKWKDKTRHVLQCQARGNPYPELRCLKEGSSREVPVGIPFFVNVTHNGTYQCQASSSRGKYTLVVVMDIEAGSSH
Put plainly: ELISA binding of recombinant ICR-8.1 antibodies. The following applies: humanized/chimeric ICR-8.1 chain combinations, human IgG4/kappa.

7 molecules from US20040248211A1, “ICAM-related protein” (priority 1992, published 2004) can be followed below.

B1: Tyr498Phe: ICAM-R cytoplasmic domain point mutant (protein, UniProt P32942 30-547, looked up, variant Y498F)
Intercellular adhesion …: QEFLLRVEPQNPVLSAGGSLFVNCSTDCPSSEKIALETSLSKELVASGMGWAAFNLSNVTGNSRILCSVYCNGSQITGSSNITVYRLPERVELAPLPPWQPVGQNFTLRCQVEDGSPRTSLTVVLLRWEEELSRQPAVEEPAEVTATVLASRDDHGAPFSCRTELDMQPQGLGLFVNTSAPRQLRTFVLPVTPPRLVAPRFLEVETSWPVDCTLDGLFPASEAQVYLALGDQMLNATVMNHGDTLTATATATARADQEGAREIVCNVTLGGERREARENLTVFSFLGPIVNLSEPTAHEGSTVTVSCMAGARVQVTLDGVPAAAPGQPAQLQLNATESDDGRSFFCSATLEVDGEFLHRNSSVQLRVLYGPKIDRATCPQHLKWKDKTRHVLQCQARGNPYPELRCLKEGSSREVPVGIPFFVNVTHNGTYQCQASSSRGKYTLVVVMDIEAGSSHFVPVFVAVLLTLGVVTIVLALMYVFREHQRSGSYHVREESTFLPLTSMQPTEAMGEEPSRAE
Turning to B1, the “IL-2 Induction (Fold Stimulation)” value in assay [1] is 1.6 Fold. Also, in assay [2], the “spreading on ICR-1.1 coated plastic” value was “spread onto the ICR-1.1 coated plastic surface”. Moreover, in assay [3], the ICR-1.1 induced aggregation result is “aggregation competent”.

B2: Leu499Ala: ICAM-R cytoplasmic domain point mutant (protein, UniProt P32942 30-547, looked up, variant L499A)
Intercellular adhesion …: QEFLLRVEPQNPVLSAGGSLFVNCSTDCPSSEKIALETSLSKELVASGMGWAAFNLSNVTGNSRILCSVYCNGSQITGSSNITVYRLPERVELAPLPPWQPVGQNFTLRCQVEDGSPRTSLTVVLLRWEEELSRQPAVEEPAEVTATVLASRDDHGAPFSCRTELDMQPQGLGLFVNTSAPRQLRTFVLPVTPPRLVAPRFLEVETSWPVDCTLDGLFPASEAQVYLALGDQMLNATVMNHGDTLTATATATARADQEGAREIVCNVTLGGERREARENLTVFSFLGPIVNLSEPTAHEGSTVTVSCMAGARVQVTLDGVPAAAPGQPAQLQLNATESDDGRSFFCSATLEVDGEFLHRNSSVQLRVLYGPKIDRATCPQHLKWKDKTRHVLQCQARGNPYPELRCLKEGSSREVPVGIPFFVNVTHNGTYQCQASSSRGKYTLVVVMDIEAGSSHFVPVFVAVLLTLGVVTIVLALMYVFREHQRSGSYHVREESTYAPLTSMQPTEAMGEEPSRAE
As for B2, in assay [1], the “IL-2 Induction (Fold Stimulation)” value was “˜6 Fold” and the “fold increase of IL-2 released (ICR-1.1 plus OKT3 divided by OKT3 alone)” value is “Neither ICAM-R mutation affected IL-2 secretion”. In addition, the “spreading on ICR-1.1 coated plastic” value in assay [2] is given as “Neither ICAM-R mutation affected”. Further, in assay [3], the ICR-1.1 induced aggregation result is given as “Neither ICAM-R mutation affected” and the “Percent Aggregation” value is listed as 60%.

B3: Ser496Ala: ICAM-R cytoplasmic domain point mutant (protein, UniProt P32942 30-547, looked up, variant S496A)
Intercellular adhesion …: QEFLLRVEPQNPVLSAGGSLFVNCSTDCPSSEKIALETSLSKELVASGMGWAAFNLSNVTGNSRILCSVYCNGSQITGSSNITVYRLPERVELAPLPPWQPVGQNFTLRCQVEDGSPRTSLTVVLLRWEEELSRQPAVEEPAEVTATVLASRDDHGAPFSCRTELDMQPQGLGLFVNTSAPRQLRTFVLPVTPPRLVAPRFLEVETSWPVDCTLDGLFPASEAQVYLALGDQMLNATVMNHGDTLTATATATARADQEGAREIVCNVTLGGERREARENLTVFSFLGPIVNLSEPTAHEGSTVTVSCMAGARVQVTLDGVPAAAPGQPAQLQLNATESDDGRSFFCSATLEVDGEFLHRNSSVQLRVLYGPKIDRATCPQHLKWKDKTRHVLQCQARGNPYPELRCLKEGSSREVPVGIPFFVNVTHNGTYQCQASSSRGKYTLVVVMDIEAGSSHFVPVFVAVLLTLGVVTIVLALMYVFREHQRSGSYHVREEATYLPLTSMQPTEAMGEEPSRAE
For the molecule B3, in assay [1], the “IL-2 Induction (Fold Stimulation)” value is “˜6 Fold” and the “fold increase of IL-2 released (ICR-1.1 plus OKT3 divided by OKT3 alone)” value was “Neither ICAM-R mutation affected IL-2 secretion”. For the same molecule, the “spreading on ICR-1.1 coated plastic” value in assay [2] is “Neither ICAM-R mutation affected”. Further, in assay [3], the ICR-1.1 induced aggregation result was “Neither ICAM-R mutation affected” and the “Percent Aggregation” value is listed as 60%.

B4: Tyr490Phe: ICAM-R cytoplasmic domain point mutant (protein, UniProt P32942 30-547, looked up, variant Y490F)
Intercellular adhesion …: QEFLLRVEPQNPVLSAGGSLFVNCSTDCPSSEKIALETSLSKELVASGMGWAAFNLSNVTGNSRILCSVYCNGSQITGSSNITVYRLPERVELAPLPPWQPVGQNFTLRCQVEDGSPRTSLTVVLLRWEEELSRQPAVEEPAEVTATVLASRDDHGAPFSCRTELDMQPQGLGLFVNTSAPRQLRTFVLPVTPPRLVAPRFLEVETSWPVDCTLDGLFPASEAQVYLALGDQMLNATVMNHGDTLTATATATARADQEGAREIVCNVTLGGERREARENLTVFSFLGPIVNLSEPTAHEGSTVTVSCMAGARVQVTLDGVPAAAPGQPAQLQLNATESDDGRSFFCSATLEVDGEFLHRNSSVQLRVLYGPKIDRATCPQHLKWKDKTRHVLQCQARGNPYPELRCLKEGSSREVPVGIPFFVNVTHNGTYQCQASSSRGKYTLVVVMDIEAGSSHFVPVFVAVLLTLGVVTIVLALMYVFREHQRSGSFHVREESTYLPLTSMQPTEAMGEEPSRAE
On to B4, for which, in assay [1], the “IL-2 Induction (Fold Stimulation)” value came out at 1.8 Fold. For the same molecule, in assay [2], the “spreading on ICR-1.1 coated plastic” value is on record as “incapable of flattening down onto the ICR-1.1 coated surface”. Moreover, in assay [3], the ICR-1.1 induced aggregation result was “incapable of forming inducible aggregates”.

B5: MuVHVS/MuVK: chimeric ICR-8.1: murine VH with Val2, Ser7 and murine VK, human IgG4/kappa constant regions (antibody, V domains shown)
VH: EVQLQQSGPELVKPGASVKISCKASGYSFTDCIILWVKQSHGKGLEWIGKINPYFGTTTYNLKFKGKATLTVDKSSSTAHMQLNSLTSEDSAVYYCARKEAYPDAMDYWGQGTSVTVSS
VL: DAVMTQTPLSLPVSLGDQASISCRSSQSLVHSNGDTYLHWYLQKPGQSPQLLIYKVSNRFSGVPDRFSGSGSGTDFTLKLSRVEAEDLGVYFCSQSTHVPYTFGGGTKLEIK
For B5, the “binding to ICAM-R (ELISA), recombinant ICR-8.1 antibodies” value (“binding to ICAM-R (ELISA)” below) in assay [4] was “equivalence in binding to ICAM-R”.

B6: HuVH/MuVK: ICR-8.1 humanized VH (Ala71) with murine VK (antibody, V domains shown)
VH: QVQLVQSGAEVKKPGASVKVSCKASGYTFTDCIILWVRQAPGQGLEWMGKINPYFGTTTYNLKFKGRVTITADTSTSTAYMELSSLRSEDTAVYYCARKEAYPDAMDYWGQGTLVTVSS
VL: DAVMTQTPLSLPVSLGDQASISCRSSQSLVHSNGDTYLHWYLQKPGQSPQLLIYKVSNRFSGVPDRFSGSGSGTDFTLKLSRVEAEDLGVYFCSQSTHVPYTFGGGTKLEIK
Regarding B6, the “binding to ICAM-R (ELISA)” value in assay [4] was “equivalence in binding to ICAM-R”.

B7: MuVHVST/MuVK: chimeric ICR-8.1, MuVHVS heavy chain with Thr28, murine VK (antibody, V domains shown)
VH: EVQLQQSGPELVKPGASVKISCKASGYTFTDCIILWVKQSHGKGLEWIGKINPYFGTTTYNLKFKGKATLTVDKSSSTAHMQLNSLTSEDSAVYYCARKEAYPDAMDYWGQGTSVTVSS
VL: DAVMTQTPLSLPVSLGDQASISCRSSQSLVHSNGDTYLHWYLQKPGQSPQLLIYKVSNRFSGVPDRFSGSGSGTDFTLKLSRVEAEDLGVYFCSQSTHVPYTFGGGTKLEIK
As for B7, the “binding to ICAM-R (ELISA)” value in assay [4] is on record as “equivalence in binding to ICAM-R”.
